Test results taken from patent publication US20230002480A1.

Experiments:
Test in all cases: cell-based or functional assay
[1] = biological target: HIV-1 Env of pseudovirus CNE20 (clade BC) (HIV-1)
[2] = biological target: HIV-1 Env of pseudovirus Ce1086_B2 (clade C (T/F)) (HIV-1)
[3] = biological target: HIV-1 Env of pseudovirus Du156.12 (clade C) (HIV-1)
[4] = biological target: HIV-1 Env of pseudovirus MS208.A1 (clade A) (HIV-1)
[5] = biological target: HIV-1 Env of pseudovirus CNE19 (clade BC) (HIV-1)
[6] = biological target: HIV-1 Env of pseudovirus 1394C9G1(Rev-) (clade C (T/F)) (HIV-1)
[7] = biological target: HIV-1 Env of pseudovirus CNE52 (clade BC) (HIV-1)
[8] = biological target: HIV-1 Env of pseudovirus 6535.3 (clade B) (HIV-1)
[9] = biological target: HIV-1 Env of pseudovirus Q461.e2 (clade A) (HIV-1)
[10] = biological target: HIV-1 Env of pseudovirus Ce1176_A3 (clade C (T/F)) (HIV-1)
[11] = biological target: HIV-1 Env of pseudovirus Q23.17 (clade A) (HIV-1)
[12] = biological target: HIV-1 Env of pseudovirus ZM249M.PL1 (clade C) (HIV-1)
[13] = biological target: HIV-1 Env of pseudovirus THRO4156.18 (clade B) (HIV-1)
[14] = biological target: HIV-1 Env of pseudovirus HIV-16845-2.22 (clade C) (HIV-1)
[15] = biological target: HIV-1 Env of pseudovirus TRO.11 (clade B) (HIV-1)
[16] = biological target: HIV-1 Env of pseudovirus QH0692.42 (clade B) (HIV-1)
[17] = biological target: HIV-1 Env of pseudovirus 246F C1G (clade C (T/F)) (HIV-1)
[18] = biological target: HIV-1 Env of pseudovirus Ce0682_E4 (clade C (T/F)) (HIV-1)
[19] = biological target: HIV-1 Env of pseudovirus Ce1172_H1 (clade C (T/F)) (HIV-1)

**Q.** Which results are given for N49P7.2 (antibody)?
**A.** IC50 [1]: 0.119 µg/mL; IC80 [1]: 0.574 µg/mL; MPI [1]: 99; IC50 [2]: 0.166 µg/mL; IC80 [2]: 1 µg/mL; MPI [2]: 100; IC50 [3]: 0.058 µg/mL; IC80 [3]: 0.21 µg/mL; MPI [3]: 100; IC50 [4]: 0.186 µg/mL; IC80 [4]: 0.966 µg/mL; MPI [4]: 100; IC50 [5]: 0.033 µg/mL; IC80 [5]: 0.129 µg/mL; MPI [5]: 100; IC50 [6]: > 50 µg/mL; IC80 [6]: > 50 µg/mL; MPI [6]: 20; IC50 [7]: 0.03 µg/mL; IC80 [7]: 0.088 µg/mL; MPI [7]: 100; IC50 [8]: 0.152 µg/mL; IC80 [8]: 0.784 µg/mL; MPI [8]: 100; IC50 [9]: 0.472 µg/mL; IC80 [9]: 2.24 µg/mL; MPI [9]: 100; IC50 [10]: 0.332 µg/mL; IC80 [10]: 1.08 µg/mL; MPI [10]: 100; IC50 [11]: 0.051 µg/mL; IC80 [11]: 0.2 µg/mL; MPI [11]: 100; IC50 [12]: 0.073 µg/mL; IC80 [12]: 0.256 µg/mL; MPI [12]: 100; IC50 [13]: 6.29 µg/mL; IC80 [13]: 33.3 µg/mL; MPI [13]: 94; IC50 [14]: 3.91 µg/mL; IC80 [14]: 18.2 µg/mL; MPI [14]: 98; IC50 [15]: 0.113 µg/mL; IC80 [15]: 0.306 µg/mL; MPI [15]: 100; IC50 [16]: 1.26 µg/mL; IC80 [16]: 4.42 µg/mL; MPI [16]: 100; IC50 [17]: 0.049 µg/mL; IC80 [17]: 0.192 µg/mL; MPI [17]: 100; IC50 [18]: 0.067 µg/mL; IC80 [18]: 0.233 µg/mL; MPI [18]: 100; IC50 [19]: > 50 µg/mL; IC80 [19]: > 50 µg/mL; MPI [19]: 6
